This experiment addresses T1, p185 BCR-ABL (human, UniProt P00519 27-1130).
T1 construct: Endogenous protein of the SUP-B15 ALL cell line; also called Bcr-Abl oncoprotein (SUP-B15 cells)
Briefly: co-precipitation of Bcr-Abl with Bcr by anti-BCR (1256-1271), immunokinase assay, SUP-B15 cells. As for the experimental part:
The effects of the sense and antisense 3′ BCR oligonucleotides were tested on BCR expression in SUP-Bi5 cells, a cell line derived from a Ph¹-positive acute lymphocytic leukemia patient that expresses p185 BCR—ABL.
In this study, equal amounts of the sense and the antisense oligonucleotide treated B15 cells were analyzed.

B1: p160 BCR (enzyme, human, UniProt P11274 1-1271, looked up)
chain: MVDPVGFAEAWKAQFPDSEPPRMELRSVGDIEQELERCKASIRRLEQEVNQERFRMIYLQTLLAKEKKSYDRQRWGFRRAAQAPDGASEPRASASRPQPAPADGADPPPAEEPEARPDGEGSPGKARPGTARRPGAAASGERDDRGPPASVAALRSNFERIRKGHGQPGADAEKPFYVNVEFHHERGLVKVNDKEVSDRISSLGSQAMQMERKKSQHGAGSSVGDASRPPYRGRSSESSCGVDGDYEDAELNPRFLKDNLIDANGGSRPPWPPLEYQPYQSIYVGGMMEGEGKGPLLRSQSTSEQEKRLTWPRRSYSPRSFEDCGGGYTPDCSSNENLTSSEEDFSSGQSSRVSPSPTTYRMFRDKSRSPSQNSQQSFDSSSPPTPQCHKRHRHCPVVVSEATIVGVRKTGQIWPNDGEGAFHGDADGSFGTPPGYGCAADRAEEQRRHQDGLPYIDDSPSSSPHLSSKGRGSRDALVSGALESTKASELDLEKGLEMRKWVLSGILASEETYLSHLEALLLPMKPLKAAATTSQPVLTSQQIETIFFKVPELYEIHKEFYDGLFPRVQQWSHQQRVGDLFQKLASQLGVYRAFVDNYGVAMEMAEKCCQANAQFAEISENLRARSNKDAKDPTTKNSLETLLYKPVDRVTRSTLVLHDLLKHTPASHPDHPLLQDALRISQNFLSSINEEITPRRQSMTVKKGEHRQLLKDSFMVELVEGARKLRHVFLFTDLLLCTKLKKQSGGKTQQYDCKWYIPLTDLSFQMVDELEAVPNIPLVPDEELDALKIKISQIKNDIQREKRANKGSKATERLKKKLSEQESLLLLMSPSMAFRVHSRNGKSYTFLISSDYERAEWRENIREQQKKCFRSFSLTSVELQMLTNSCVKLQTVHSIPLTINKEDDESPGLYGFLNVIVHSATGFKQSSNLYCTLEVDSFGYFVNKAKTRVYRDTAEPNWNEEFEIELEGSQTLRILCYEKCYNKTKIPKEDGESTDRLMGKGQVQLDPQALQDRDWQRTVIAMNGIEVKLSVKFNSREFSLKRMPSRKQTGVFGVKIAVVTKRERSKVPYIVRQCVEEIERRGMEEVGIYRVSGVATDIQALKAAFDVNNKDVSVMMSEMDVNAIAGTLKLYFRELPEPLFTDEFYPNFAEGIALSDPVAKESCMLNLLLSLPEANLLTFLFLLDHLKRVAEKEAVNKMSLHNLATVFGPTLLRPSEKESKLPANPSQPITMTDSWSLEVMSQVQVLLYFLQLEAIPAPDSKRQSILFSTEV
notes: also called normal Bcr protein; wild-type Bcr
In the case of B1, the binding result is “binds”.
